Data set [1] addresses PDGFRbeta extracellular domain (EC-PDGFRβ) (Homo sapiens, UniProt P09619 P09619:33-532). Briefly: filter; 1 nM radiolabeled RNA, 1-1000 nM protein; unrelated aptamer background subtracted. The settings on record: tags: soluble, R&D Systems; label: 5'-32P.
Data set [2] has as its target PDGFRalpha extracellular domain (EC-PDGFRα) (Homo sapiens, UniProt P16234 P16234:24-528). Briefly: filter; no saturable binding detectable up to 1000 nM. The settings on record: tags: soluble, R&D Systems; label: 5'-32P.

The values that follow come from patent US20150275215, “NEUTRALIZING RNA APTAMERS AGAINST PDGFBETA AND USES THEREOF IN THE THERAPY AND DIAGNOSIS OF HYPERPROLIFERATIVE DISEASES” (CONSIGLIO NAZIONALE DELLE RICERCHE, published 2015).

Chain of PDGFRbeta extracellular domain (EC-PDGFRβ) (P09619 33-532, one chain of several): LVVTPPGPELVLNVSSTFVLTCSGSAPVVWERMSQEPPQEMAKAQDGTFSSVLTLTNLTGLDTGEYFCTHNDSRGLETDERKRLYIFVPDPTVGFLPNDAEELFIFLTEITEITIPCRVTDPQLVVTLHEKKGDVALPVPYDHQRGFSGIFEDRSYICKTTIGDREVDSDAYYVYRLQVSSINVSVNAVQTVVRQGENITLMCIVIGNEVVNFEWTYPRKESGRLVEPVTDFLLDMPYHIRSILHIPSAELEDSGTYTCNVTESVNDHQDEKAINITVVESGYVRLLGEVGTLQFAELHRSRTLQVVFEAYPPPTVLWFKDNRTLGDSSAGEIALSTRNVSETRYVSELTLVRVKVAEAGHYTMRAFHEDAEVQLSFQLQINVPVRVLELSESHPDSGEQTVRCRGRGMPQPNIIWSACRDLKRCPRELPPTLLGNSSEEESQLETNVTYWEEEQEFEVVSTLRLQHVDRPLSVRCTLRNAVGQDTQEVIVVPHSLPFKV
Chain of PDGFRalpha extracellular domain (EC-PDGFRα) (P16234 24-528, one chain of several): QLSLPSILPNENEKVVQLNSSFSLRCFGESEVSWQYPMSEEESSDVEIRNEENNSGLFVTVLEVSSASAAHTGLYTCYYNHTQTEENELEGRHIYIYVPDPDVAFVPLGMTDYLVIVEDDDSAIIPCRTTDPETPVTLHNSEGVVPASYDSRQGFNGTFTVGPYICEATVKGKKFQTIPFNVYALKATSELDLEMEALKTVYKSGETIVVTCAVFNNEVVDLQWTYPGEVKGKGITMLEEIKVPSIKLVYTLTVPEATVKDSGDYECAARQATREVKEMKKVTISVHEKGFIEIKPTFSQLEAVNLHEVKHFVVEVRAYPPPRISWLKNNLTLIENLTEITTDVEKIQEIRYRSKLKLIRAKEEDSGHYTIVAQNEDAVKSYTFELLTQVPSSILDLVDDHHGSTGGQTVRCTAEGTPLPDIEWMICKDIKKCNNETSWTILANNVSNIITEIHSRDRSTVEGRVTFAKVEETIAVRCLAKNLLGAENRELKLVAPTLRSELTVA

B1: Gint4 (ssRNA)
RNA: GGGAGACAAGAAUAAACGCUCAAUCAUAAGAGGUAUCACAUUGUCGUGGGGCAUCGAGUAAAUGCAAUUCGACAGGAGGCUCACAACAGGC
modifications: 2'-F all pyrimidines
As for B1, the Kd in data set [1] came to 10.4 nM.
As to UGUCGUGGGGCAUCGAGUAAAUGCAAUUCGACA (ssRNA, 2'-F all pyrimidines) [Gint4.T], in data set [1], the Kd stood at 9.6 nM. In data set [2], the binding result is “no binding”.

The term Kd denotes a measure of binding affinity in units of concentration. High values mean weaker binding, low ones tighter binding.
